Assay results published in article PMC3814058.

How the values were obtained:
[1] = target: GFP–STIM2K dimer (oxidized, disulphide-linked through Cys725) (human) (UniProt Q9P246); experiment: pull-down; competition: GFP–STIM2K dimer bound to Ca^2+/CaM beads, eluted with 75 μM purified CaM or CaM mutant in 1 mM CaCl2; percent of bound GFP–STIM2K eluted
[2] = target: GFP–Zipper–STIM1K (GFP, tetramerization domain of the Gcn4 leucine zipper variant pLI, STIM1 K-rich domain) (yeast | human) (UniProt Q13586); experiment: SEC; Superdex 200 10/300 GL in HK buffer (25 mM HEPES/KOH pH 7.5, 150 mM KCl, 1 mM DTT), 0.5 ml/min; elution compared with marker proteins
[3] = target: GFP–STIM2K dimer (oxidized, disulphide-linked through Cys725) (human) (UniProt Q9P246)
[4] = target: GFP–STIM2K dimer (oxidized, disulphide-linked through Cys725) (human) (UniProt Q9P246); remark: listed apart in the source
[5] = target: GFP–STIM2K dimer (oxidized, disulphide-linked through Cys725) (human) (UniProt Q9P246); remark: listed apart in the source

GFP–STIM2K dimer (oxidized, disulphide-linked through Cys725) (human), sequence (Q9P246 720-746): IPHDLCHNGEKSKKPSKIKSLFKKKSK

percent of GFP–STIM2K eluted from the Ca^2+/CaM beads [1] | stoichiometry N [2] | reduction of binding of 2 μM GFP–STIM2K dimer to PM-like liposomes with 2 mol% PI(4,5)P2 after pre-incubation with 5 μM CaM in 100 μM CaCl2, against 100 μM CaCl2 alone [3] | reduction of binding of 2 μM GFP–STIM2K dimer to PC liposomes with 5 mol% PI(4,5)P2 after pre-incubation with 5 μM CaM in 100 μM CaCl2 (5-fold against no CaCl2, 3.8-fold against 100 μM CaCl2) [4] | reduction of binding of 2 μM GFP–STIM2K dimer to PM-like liposomes with 2 mol% PI(4,5)P2 after pre-incubation with 5 μM CaM in 50, 100 or 200 μM CaCl2 (2.1-, 2.6- and 3.4-fold against CaCl2 alone) [5] | Substance
7% | – | – | – | – | CaM1–4m (human CaM1–4 mutant, all four EF-hand domains mutated) (from UniProt P0DP23 1-149) (natural protein)
– | 4 | – | – | – | GFP–Zipper–STIM1K (GFP, tetramerization domain of the Gcn4 leucine zipper variant pLI, STIM1 K-rich domain) (from UniProt Q13586-1 662-685)
45% | – | 61% | 74% | 71% | His(6)-tagged human CaM (calmodulin) (from UniProt P0DP23 1-149) (natural protein)
